Usually stoichiometry N stands for a count of units in the complex or per binding partner.

For the test, the target named is GST-FKBP12. Description: AUC; sedimentation equilibrium of GST-FKBP12, seven serial two-fold dilutions from 320 µM, 3000-12 000 r.p.m., about 14 h, absorbance at 230 and 280 nm, Sedphat.

Regarding GST-FKBP12, the stoichiometry N was 2.

The values above are taken from PMC10150220.
